In assay [1] the target is T1, recombinant ILT2 (human) (human, UniProt Q8NHL6 24-461).
T1 construct: also called recombinant ILT2 peptide; ILT2 protein
As to the kind of experiment: SPR (Biacore T200); KD relative to Control (chimeric 15G8). As for the experimental part: (§1) During grafting of the 15G8 CDRs, five heavy chains and four kappa light chains were generated. These chains were designated VH1-5 and Vk1-4. By combining each heavy chain with each light chain twenty different resultant antibodies are possible. All twenty possible antibodies were transiently expressed in HEK EBNA cells, and the supernatants were tested for binding to recombinant ILT2 peptide using a Biacore T200. The chimeric 15G8 antibody was used as control.
A general note: In SPR one partner is held on a chip, and binding of the other changes the refractive index at the surface.

Assay [2] concerns the target T1, recombinant ILT2 (human). As to the kind of experiment: SPR (Biacore T200), HEK EBNA supernatants on recombinant ILT2 peptide. As for the experimental part:
as §1

For another assay, the target named is T2, PIRB (UniProt P97484 25-642, limits assumed).
T2 sequence (looked up): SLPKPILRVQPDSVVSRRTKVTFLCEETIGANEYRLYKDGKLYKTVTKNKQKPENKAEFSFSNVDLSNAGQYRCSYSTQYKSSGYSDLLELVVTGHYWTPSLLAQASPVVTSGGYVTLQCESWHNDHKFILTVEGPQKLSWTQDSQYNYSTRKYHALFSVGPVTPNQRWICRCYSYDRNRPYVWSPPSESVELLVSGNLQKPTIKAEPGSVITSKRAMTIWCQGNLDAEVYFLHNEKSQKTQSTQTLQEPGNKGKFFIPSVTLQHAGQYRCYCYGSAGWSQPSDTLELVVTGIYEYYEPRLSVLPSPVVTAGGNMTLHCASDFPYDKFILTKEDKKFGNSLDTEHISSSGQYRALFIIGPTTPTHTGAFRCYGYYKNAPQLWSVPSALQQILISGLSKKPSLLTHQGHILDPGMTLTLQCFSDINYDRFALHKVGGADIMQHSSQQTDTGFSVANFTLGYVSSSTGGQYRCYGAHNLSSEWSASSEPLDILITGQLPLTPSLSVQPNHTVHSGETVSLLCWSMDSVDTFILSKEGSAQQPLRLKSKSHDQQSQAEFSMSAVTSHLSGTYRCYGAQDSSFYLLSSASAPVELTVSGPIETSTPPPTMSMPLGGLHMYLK
As to the kind of experiment: binding ELISA, column PIRB. Background: ELISA stands for enzyme-linked immunosorbent assay.

Assay [3] concerns the target T1, recombinant ILT2 (human). In words: binding ELISA, hILT2-Fc.
The target in another assay is ILT6 (UniProt Q8N6C8 24-439, limits assumed). In words: binding ELISA, column hILT6-His.
Chain of ILT6 (Q8N6C8 24-439 limits assumed): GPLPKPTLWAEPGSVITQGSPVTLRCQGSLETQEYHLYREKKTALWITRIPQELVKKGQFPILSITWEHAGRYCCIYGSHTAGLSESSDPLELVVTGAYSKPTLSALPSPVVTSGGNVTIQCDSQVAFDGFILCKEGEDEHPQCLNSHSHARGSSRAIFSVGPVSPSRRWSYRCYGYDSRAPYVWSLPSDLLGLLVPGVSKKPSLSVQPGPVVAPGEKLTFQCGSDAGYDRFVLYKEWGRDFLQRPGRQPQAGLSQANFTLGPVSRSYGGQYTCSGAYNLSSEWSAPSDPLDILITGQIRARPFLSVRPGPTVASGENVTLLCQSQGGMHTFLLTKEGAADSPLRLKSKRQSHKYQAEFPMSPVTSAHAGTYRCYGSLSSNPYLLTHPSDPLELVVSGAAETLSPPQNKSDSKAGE
The target of the next assay is LILRA1 (UniProt O75019 17-461, limits assumed). In words: binding ELISA, column hLILRA1-His.
Chain of LILRA1 (O75019 17-461 limits assumed): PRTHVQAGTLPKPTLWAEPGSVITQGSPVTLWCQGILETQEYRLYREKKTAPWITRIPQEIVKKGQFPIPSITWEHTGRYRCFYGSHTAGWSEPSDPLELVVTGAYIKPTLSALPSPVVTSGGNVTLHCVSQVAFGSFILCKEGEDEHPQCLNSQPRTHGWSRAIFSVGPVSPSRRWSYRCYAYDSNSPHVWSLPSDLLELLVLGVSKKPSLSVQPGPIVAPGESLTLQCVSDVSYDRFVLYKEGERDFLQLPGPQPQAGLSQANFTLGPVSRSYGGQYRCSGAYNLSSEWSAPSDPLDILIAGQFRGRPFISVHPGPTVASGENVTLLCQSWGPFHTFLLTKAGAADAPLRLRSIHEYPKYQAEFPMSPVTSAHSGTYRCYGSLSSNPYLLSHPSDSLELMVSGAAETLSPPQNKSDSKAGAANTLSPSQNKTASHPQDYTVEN

Positions count from the first letter of the chain named. Numbers in names are those of the source.

One may read the Kd as the free concentration of one partner at which half of the binding sites on the other are occupied at equilibrium, for simple one-to-one binding. Usually koff stands for the first-order rate constant of dissociation. As a reminder, the kon is a measure of how fast the partners come together.

T1 sequence (Q8NHL6 24-461 limits assumed): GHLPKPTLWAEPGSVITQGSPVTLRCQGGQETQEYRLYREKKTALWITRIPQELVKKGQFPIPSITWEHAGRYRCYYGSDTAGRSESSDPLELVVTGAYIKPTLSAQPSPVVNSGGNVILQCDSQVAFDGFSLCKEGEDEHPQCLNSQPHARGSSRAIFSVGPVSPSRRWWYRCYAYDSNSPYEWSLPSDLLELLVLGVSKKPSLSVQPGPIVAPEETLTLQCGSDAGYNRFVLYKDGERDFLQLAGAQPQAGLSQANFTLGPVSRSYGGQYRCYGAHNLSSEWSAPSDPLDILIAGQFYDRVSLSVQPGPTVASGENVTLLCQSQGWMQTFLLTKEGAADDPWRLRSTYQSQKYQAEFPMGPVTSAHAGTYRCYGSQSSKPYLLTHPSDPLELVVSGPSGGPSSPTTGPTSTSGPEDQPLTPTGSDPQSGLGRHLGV

B1: humanized 15G8 VH3/Vk3 (antibody, IgG4, V domains shown)
VH: DVQLQGSGPGLVKPSETLSLTCSVTGYSITSGYYWNWIRQPPGKGLEWMGYISYDGSNNYNPSLKNRITISRDTSKNQFSLKLSSVTAADTATYYCAHGYSYYYAMDAWGQGTTVTVSS
VL: DIQMTQSPSSLSASVGDRVTITCRTSQDISNYLNWYQQKPGKAVKLLISYTSRLHSGVPSRFSGSGSGTDYTLTISSLQPEDFATYYCQQGNTLPTFGQGTKLEIK
notes: Humanized IgG4 (S228P, L235E), kappa; tested as supernatant of transiently transfected HEK EBNA cells
As for B1, the “Relative KD” value in the assay with recombinant ILT2 (human) [1] stood at 0.72. Also, in the assay with recombinant ILT2 (human) [2], the Kd was 9.03 nM, the koff turned out to be 0.00611 s⁻¹ and the kon was 677000 M⁻¹ s⁻¹.

B2: humanized 15G8 VH4/Vk3 (antibody, IgG4, V domains shown)
VH: B1 VH with D1Q, I68V
VL: B1 VL
notes: as for B1
Consider B2, for which the “Relative KD” value with recombinant ILT2 (human) [1] stood at 0.75. Also, in the assay with recombinant ILT2 (human) [2], the Kd was found to be 9.51 nM, the dissociation rate constant (koff) came to 0.00843 s⁻¹ and the on-rate constant (kon) came to 886000 M⁻¹ s⁻¹.

B3: humanized 15G8 VH5/Vk1 (antibody, IgG4, V domains shown)
VH: B1 VH with D1Q, S23T, M49I, I68V
VL: B1 VL with P8T, P80Q, Y87F
notes: as for B1
As for B3, the “Relative KD” value with recombinant ILT2 (human) [1] came out at 0.68. In addition, in the assay with recombinant ILT2 (human) [2], the Kd came out at 8.55 nM, the dissociation rate constant (koff) came out at 0.00994 s⁻¹ and the on-rate constant (kon) was found to be 1.16e+06 M⁻¹ s⁻¹.

B4: humanized 15G8 VH4/Vk1 (antibody, IgG4, V domains shown)
VH: B1 VH with D1Q, I68V
VL: B1 VL with P8T, P80Q, Y87F
notes: as for B1
On to B4, for which, in the assay with recombinant ILT2 (human) [1], the “Relative KD” value was 0.69. In addition, in the assay with recombinant ILT2 (human) [2], the dissociation constant (Kd) was 8.66 nM, the koff was determined as 0.00792 s⁻¹ and the kon is 915000 M⁻¹ s⁻¹.

B5: humanized 15G8 VH5/Vk2 (antibody, IgG4, V domains shown)
VH: B1 VH with D1Q, S23T, M49I, I68V
VL: B1 VL with Y87F
notes: as for B1
Turning to B5, in the assay with recombinant ILT2 (human) [1], the “Relative KD” value worked out at 0.6. Besides, in the assay with recombinant ILT2 (human) [2], the dissociation constant (Kd) was determined as 7.57 nM, the koff is 0.00954 s⁻¹ and the kon worked out at 1.26e+06 M⁻¹ s⁻¹.

B6: 17F2 (hybridoma-derived, murine) (antibody, V domains shown)
VH: QVQLQQSDAELVKPGASVKISCKVSGYTFTDHTIHWMKQRPEQGLEWIGYIYPRDGSTKYNEKFKGKATLTADKSSSTAYMQLNSLTSEDSAVYFCARTWDYFDYWGQGTTLTVSS
VL: DIVLTQSPASLAVSLGQRATISCRASESVDSYGNSFMHWYQQKPGQPPKLLIYRASNLESGIPARFSGSGSRTDFTLTINPVEADDVATYYCQQSNEDPYTFGGGTKLEIK
B6: the “ELISA (OD)” value in the assay with PIRB came out at 0.06 OD; with recombinant ILT2 (human) [3], 1.89 OD; with ILT6, 0.06 OD; in the assay with LILRA1 it was 0.08 OD. Besides, the binding result in the assay with PIRB, with ILT6 and with LILRA1 was “no binding” each time.

B7: 19E3 (hybridoma-derived, murine) (antibody, V domains shown)
VH: QVQLQQSGAELARPGASVKLSCKASGYTFTSYGISWVKQRTGQGLEWVGEIYPGSGNSYYNEKFKGKATLTADKSSSTAYMELRSLTSEDSAVYFCARSNDGYPDYWGQGTTLTVSS
VL: DIQMTQSSSYLSVSLGGRVTITCKASDHINNWLAWYQQKPGNAPRLLISGATSLETGVPSRFSGSGSGKDYTLSITSLQTEDVATYYCQQYWSTPWTFGGGTKLEIK
Consider B7, for which the “ELISA (OD)” value with PIRB came to 0.14 OD; with recombinant ILT2 (human) [3], 2.61 OD; with ILT6, 0.13 OD; in the assay with LILRA1, 0.11 OD. The binding result with PIRB, in the assay with ILT6 and with LILRA1 was “no binding” in each case.

Source of the values: US20220048991A1 (BIOND BIOLOGICS, published 2022).
